Results on 19 sequences are retold here after the DeepSol protein solubility set.

The nature of the data set: soluble on expression in E. coli; label from the status in PepcDB or PDB records.
With “MAPKRALPTEQVVAQLLGDDMGPSGPRKRERLNHLSQEEKMDRRKLKNRVAAQNARDKKKERSAKIEDVMRDLVEENRRLRAENERLRRQNKNLMNQQNESVMYMEENNENLMNSNDACIYQNVVYEEEVVGEVAPVVVVGGEDRRAFESAAFINEPQQWEQARSTSINNNISNQLRRMDSKKNNTISVDMYLTIISILCNHMDRNKKMDTSNKSSNISRAQAESSIDSLLATLRKEQTVMQRLVQADPCTHLQKRVKHFRRIP”, the “soluble on expression in E. coli” value is recorded as “soluble”.

“MGWKMQATVTEIGKHAIDDSEKMIILFGETATDTLKQHAVIQSFPEKDQVTLAEGDHLKIGDTNYTITKVGSFANSNLQSIAHSTLIFADAPTDEDDVIRNGVYLTPHQLPKITIGTTIDYLVNGA”: the “soluble on expression in E. coli” value is given as “soluble”.

Take “MDHIELRKKIGQAIRTARIRRGLVMRDLAEAGGVSTGAVGNWERGANAIAMEHLQAISQKLRIDPVALSNGSLRYLDEEEALADAEQVTDFGPAPTGPMDVEVLGVAVGGDDGDFTLNGEVSGYVRRPPGIAHLRKVFALHVLSDSMIPRYDPGELIYVGGREAVAGDHVVIEMFPDEGATVGKAYVKKLKGRTKGAIVCEQYNPPKELQFDQYAIKNMWRIIPLRELLGY”: the “soluble on expression in E. coli” value is given as “not soluble”.

Regarding “MKLTLEEGTSLVGYVRNVIKQYLKGEEPDIQKYPDKFNNVFGVFVSLHTHPEHDLRGCIGIPEPTMSLIDAIKETSISAAVHDPRFQPLKHSELKNTIIEVSVLTPPEDVEVEDSMEYLEKLEVGRDGLIIEFGPYRGLLLPQVATEYNWDTKQFLSNLCLKAGLPTTAWIEYDVKIKSFQAQVFEELIPNGPVVEKSTYTGCLEHHHHHH”, the “soluble on expression in E. coli” value was “soluble”.

Take “MGDVVEMTSELGFKYSILASGSTGNSFYLETPEKKILVDAGLSGKKITSLLAEIDRDPSDLDAILVTHEHKDHIHGVGVLARKYGMDIYANEKTWQIMDSKNMLGKVDNSQKHIFSRGKLLTFGDIDIESFGVSHDAINPQFYRFMKDGKSFVMLTDTGYVSDRMAGLIENADGYLIESNHDIEILRAGSYPWSTKQRILSDQGHLCNEDGADAMIRTIGNKTKKIYLGHLSKENNIKELAYMTMENQLARADFGVGTDFKIFVTSPDTATPLTDILEHHHHHH”: the “soluble on expression in E. coli” value is given as “not soluble”.

As for “MILDTSVIIRIFRDRNFFEVLKERIDDDVKITSVTAYELQRGAVYIMLKHGRDYEFKLIRDFLEEVEILSFTPKDSEISAMIWAKLREKGYELNDADIMISAVSIRENEKLVTLDRDFEYISRVSELDVDILEEEL”, the “soluble on expression in E. coli” value is “not soluble”.

Take “MDRKGFLKSTMIATGSLLLGGAGICRFLNDKEPADGPFPRTIEKIHCGNMKKVLVIMSAGTKLGNTDRLTDAYIKGLVERGHSVTKVYLGSMRIEGCRGCGVCQRLAHQCAVRDGMQDIYPLFAECDTVVMASPLYFWTITSQLKAFIDRLYAISADDKYPQKDTVLLMTAGDDNENTFDQPKQYFRLLSQALGWNEVGIYCAGGCTGCEKLARQIDKVHLENVYKMGLEL”: the “soluble on expression in E. coli” value was “not soluble”.

For the sequence “MYVGYLGPSGSFTHNAALKAFPEASLVSLGTITEVIKSYEEGRVDYAVIPVENSIEGSVHESLDYLFHQADIRAVAEIVQPIKQQLMASKHHAKIEKIFSHPQAIAQGKKYIKDHFPHAKIETTASTAFAARYVADNPDQPYAAIAPHAAAKEYGLEILAKDIQEIEKNYTRFWLLGSTVP”, the “soluble on expression in E. coli” value is recorded as “not soluble”.

In the case of “MGSDKIHHHHHHMLYQLHEFQRSMLHPLTAWAQATAKTFTNPLSPLSLVPGAPRLAAGYELLYRLGKEYEKPAFDIKSVRSNGREIPIVEQTIMEKPFCRLVRFKRYADDPDTIKLLKDEPVVLVAAPLSGHHATLLRDTVRTLLQDHKVYVTDWVDARMVPAEHGPFHLSDYIYYIQEFIRHIGADKLHVISVCQPTVPVLAAISLMASAGEKTPLTMTMMGGPIDARKSPTAVNSLATNKSFEWFENNVIYTVPANYPGHGRRVYPGFLQHAGFVAMNPDRHLSSHYDYYLSLIQGDADDAEAHVRFYDEYNAVLDMAAEYYLDTIREVFQEFRLANGTWTIDGNPVRPQDIKGTALLTVEGELDDISGAGQTSAAHDLCAGIPQTHKHHLSAAKCGHYGIFSGRRWRDEIYPQLRDFIRKYR”, the “soluble on expression in E. coli” value is given as “not soluble”.

For the sequence “MGSDKIHHHHHHMLTKERTLQYFHEYFSEWIEIYKRGAVRPVTYQKYLMTLQRLTELSPNLKICELDKRKYQTLLNDYAKTHERQTTMDFHHHLKSAILDAMDEGLLTIDPTRKVIIKGKPVSDKKNKFLSQFELQSLLKSLNLTDKPNWDWFILLVAKTGLRFSEALALTPKDFDFECQKVKISKTWNYKNAEGGFGETKNLSSKRTIQIDIQLNTQIERLSKDLADDEPIFVQGRVFNSTVNNRLKVLCKKAGVPIISAHCLRHTHASLLIFAGVSIASIAKRLGHSSISTTQETYLHIIKELESQDNDKIMSHLSMITQ”, the “soluble on expression in E. coli” value was “not soluble”.

Turning to “MPTAADNHWSMPPNPEKALMLAQRAVAVFVYDAVRLEGINFTLPEVQTLLQGVTVGGHRLSDQQIAVNQGEAWKLLFQMIRDGRFELTPDCAMALHGVAAKEEALEWGCFRSGSVLIAGTEYEPPAASELPTRFDRMIDELQHMDDVHDQAVHLFLTMARCQFFYDVNKRMGRFMMNGHLLSNGYPAINIPASSQLEFNELMLRFYDSGDQREMNAFVRSCMDERVVLIMKEELEHHHHHH”, the “soluble on expression in E. coli” value is given as “soluble”.

With “MGSDKIHHHHHHMWLKAKKDAEAGAVSFSNQNGKFAEVSSVNTEEFSFRIYQVFGGGHVELSYDTVTTAVSVIYWFTASDVLETGITVVHTKPDNAAPELPGSYHFRPPFGWMNDPNGFGRFEGRPHLFYQHYSHGLRWNTMHWGHAVSSDYLRWRHLPIFLFPSEDLTTRPDKRGGAYSGSTIPLVEGSGIRVFFTEQVQDRIPEQQIQLTATSSDLIMAGQADVILAHRPDGQGLTPDFRDPYVFRGPDGLWKMLLGSQSDGGGVILLYETLDPTAASGWTYVGKLWVETRYKTTAIECPCLLPLDGPANARSTRWVLIYGLMHSEDPETGRKNLTMADVGWFDGKVFTKEFGQELDFGTDNYAFQAFLDGDSIIGIGWLANWADANPEIDFPTSMTLPRRIHYANGELLTPPIGAAESLRSHILDRTRLAAGERVTFINGAVEILIELASSDAAFELALDHPTVTLGLVSDETGLWIRHEDGRDGASPHYIAKGARASRIRIFLDYGSIEVFANRGRYVGTKRIEGFEPVRSALLRADPGAVVHATSWALKP”, the “soluble on expression in E. coli” value is reported as “not soluble”.

In the case of “MNFESTRRRLTEKQADTVDRLTRAAVEVLREEGFAGLTVRSVAGIAGVAPATAYTYFSSKEHLVAEVFWRRLAGSPQPADDGLDRTGRVVAVLRHIALLVADEPELAGAVTNALLGRDPDVEHLRARIGLEIRDRLATALGEGHDPDVLEALELLYAGGLVRAGMGYGSYAQFADRLETSAKLILE”, the “soluble on expression in E. coli” value is reported as “not soluble”.

Turning to “MSEQQPNLRERRRSETRRLVQAHAVRLFTDHGYDAVTVADVAEAAGVSAMTVYRHFPTKEDLVLIDQPAQLIAEHVAASSAAQPLVRRVGSALIDAATNWTGGNGDEQAANERFLLDCLRLMVSTPALRARHLDSQYALQQAIVDALGDDATGPDAAFRAQAATSACIAAMHTALTRWVEDDGHTKLPDLIARALTASFGDDAVATRRKG”, the “soluble on expression in E. coli” value is “not soluble”.

Take “HHPEAGNFKQRVILSHVGFDRPTVLVTEGYTAHYATHPRYQEELSKLFNANLVFVEYRYFGESMPKPCNWDYLTVENSLYDLHHVTTTLKQLYDEKWIATGISKGGQTTMFYRTYFPDDVDISVPYVAPLNQSLEDGRHEPFIANKVSTPENRKRVENFQLEVLKRKSRLLPIFEKYCSDKGYTFRIPIAEVYDFNVLEYSFALWQWGTPVNKIPETNADDHTLFKHFMAICEPDYFSEQSPYPSFNVQAAKELGYYGYDIKPFKKYLTIKSSRDYLHKVMLPPELSNLKFDKTLYNKVVKFLKENDPEMIYIYGGDDPWTASGVTWLKNKKNIKVYVLPGGSHTTRIGSFDTDTQEEIKTQINAWLNKE”: the “soluble on expression in E. coli” value was “not soluble”.

Take “MTAQSYHPMIKEFPEFYGPLTCPGQFLALLILEFGLNFAEIQKLKWENFNWNFKYLTIEKAGIKRVLPIREKFAIRVKAINNADELFAKSRQFLYTELKKFTNYSSKEIREQYILHQVKAGKSIYELATLLGLTTITTLEKYYRLEHHHHHH”: the “soluble on expression in E. coli” value is reported as “soluble”.

As to “MTHYKDDSYALHTDLYQINMAYTYWKDGIHNRRSVFDLYFRKLPFENGYAVFAGLEKIVEYIENFSFTESDIAYLAELQFEEEFLHYLQNMKFTGTIRSMQEGEVVFNNEPLLRVDAPLGEAQIIETALLNIVNYQTLIATKAARMKHAASNDELLEFGTRRAHEFDAALWGTRAAFIGGFSSTSNVRAGKRFGIPVAGTHAHSFVQAYRDEYVAFKKYAETHKKCVFLVDTYDTLKSGVPNAIRVAKEFGDRIDFYGIRLDSGDMAYLSKKARKLLDEAGFTNTKIIASSDLDEYTIMHLKSQGAKIDVWGVGTKLITSFEQPALGAVYKLVAIEDTDGKLNDTIKISSNPEKITTPGLKRIYRIINRVNDHAEGDYIALDSEEPGKEERLKMFHPVHTYISKFVTNFEARELHKDIFVNGERTYELPSILDIQKYNEQSLSLFWEEYMRTLNPEEYPVDLSQECWDHKMNYIQTVREQVEKNIQK”, the “soluble on expression in E. coli” value is on record as “not soluble”.

Consider “MYRAGAVLLRGATRTRLLAAASAHQSFATFSQRNQSILMMKSMELAGNSGERRFYSTHDDPIAVDDSLELYKDLGGMSPIQVPADMPNVPMLAINRYPLFPGFIKKVDIVKDDNLKALIRRQLSLKQPYAGVFVKRDDENKEETITSLSEVYPTGSFVQIIEVRDQGSVLELVLSAHRRIRALEPIDEITPKNETPLNGRRARGKRAASATSPLTPPPSPPPLAPSVASVAPEISATEEKEEKTTPPSATGEKQKKGIIMVRTENVVAEPVPKNNETKATMMAIVQTIRDVVQFNQLFGQQINLLLHPSQNVIDNPVYLCDLVATLVQSAETKDLQEMMDEIDVSKRLKIALLLIQKEKAVAKLKYDINKDVEKKVQDHHRKYLLNEQLKVIKKELGIEKDEKTTIIEKIDERIKTLAVPEYALKVINEEKTKLQFLDPHSSEFSVTRNYLEWLTSVPWGLTSPENRRLSVAKKALDEGHYGMKDVKERIMEFIAVNLLRKSIGGKILCFHGPPGVGKTSIAKSIATALNREYFRFSVGGMTDVAEIKGHRRTYVGAMPGKMIQCMKKVKTENPLVLIDEVDKIGGAGFHGDPASALLELLDPEQNANFNDHFLDVPVDLSRVLFICTANEISKIPGPLRDRMEMIDVSGYLAEEKVEIAHQHLIPQLRKDTSLATEQLKIEDSALEELIKHYCRESGVRNLQQHIERIFRKAALQIAEQQNEDEEPAEKATTAITENSEAEPITSTSSADCLKSSAEQIVVCTENLQKFVGRPKFTSDRMYEVTPPGVIMGLAWTAMGGSALYIETVLKRPVDLTNDKDGSIETTGNLGDVMKESVRTALTVAKGILAREQPDNKFFDKAHIHIHVPEGATPKDGPSAGVTLVSSLLSLALDRPVVQDMAMTGEISLTGKVLPVGGIREKVIAARRVGAKRVFLPNENRRDFDDLPEFMKSELDIRFVSHYDELYEHLFQ”, for which the “soluble on expression in E. coli” value is reported as “not soluble”.

With “MSLRPRQLLLATDLGARCDRALDRAIQLSRAWHAALTVVHAVEQVELIDDEPSWRQPPDAALAIQAELEDELGEAGLSSIDARVLKGKPSEVVLKVAEEVEAELILTGVKRDGALEKALLGDTVTELARQSRVPVLVVKKRLRKPYGRIVVATDLSELSRAALARAVDLFGPDNLVVFHASFAHFASRMDDRVAYESELRSDAIQNCRDFIRDVAGEEAAATMEVMVEYGEPDLLLEKYVQDKQVDLVVVSTRGRSGLLGVLLGSVAMRILDSVACDVLIVRSEGHHHHHH”, the “soluble on expression in E. coli” value is reported as “soluble”.
